According to paper PMC11857385, “Parametric Cyclic Voltammetric Analysis of an Electrochemical Aptasensor for Staphylococcus aureus Iron-Regulated Surface Determinant Protein A Detection”:

Biological target: T1, IsdA (iron-regulated surface determinant protein A) (Staphylococcus aureus, UniProt A6QG31 47-316)
T1 sequence: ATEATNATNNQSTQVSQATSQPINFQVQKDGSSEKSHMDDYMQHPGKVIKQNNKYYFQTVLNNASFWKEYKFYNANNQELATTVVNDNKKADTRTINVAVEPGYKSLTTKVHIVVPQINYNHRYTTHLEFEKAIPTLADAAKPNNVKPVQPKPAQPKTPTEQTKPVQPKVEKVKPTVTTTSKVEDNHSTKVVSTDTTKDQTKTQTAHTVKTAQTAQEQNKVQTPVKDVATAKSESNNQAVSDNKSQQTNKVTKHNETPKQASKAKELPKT
Assay: cyclic voltammetry and EIS; pH 7.5, 25 °C, 5 mM [Fe(CN)6]3-/4-, 0.1 M KCl; Aptamer (5 µM, 4 h) immobilized on SPCE/AuNPs, 2-MCE block; CV in 5 mM [Fe(CN)6]3-/4-, 0.1 M KCl, pH 7.5 (also 4.5, 10.5), 25 °C (also 4, 37 °C); zeta potential in water, room temperature
Details: label: FAM dye applied in imaging; 1 strand

Binder: GCGCACGCGUGUGUAGUACACACGAUCGCGCGCACAAUAU (ssRNA, amine for coupling to AuNP carboxyl groups implied; position not stated) [anti-IsdA aptamer]
- binding result: binds
